Assay results as given in paper PMC11187117, “Structure of the endosomal CORVET tethering complex” (Nature Communications, 2024).

Key:
Experiment in all cases: cryo-EM structure; single-particle cryo-EM of the hexameric CORVET co-expressed in yeast and purified by 3xFLAG on Vps8 and SEC; about 0.8 mg/ml; consensus map 4.6 Å, local refinements to 3.8 Å
Settings in all cases: both partners purified
[1] = biological target: T1, Vps3 (CORVET subunit) (yeast, UniProt P23643 1-1011)
T1 construct: UniProt P23643 printed for its AlphaFold model; N-terminal half (with the β-propeller) was removed from the deposited model; source: yeast lysate in the Vps8-ALFA pull-downs
T1 sequence: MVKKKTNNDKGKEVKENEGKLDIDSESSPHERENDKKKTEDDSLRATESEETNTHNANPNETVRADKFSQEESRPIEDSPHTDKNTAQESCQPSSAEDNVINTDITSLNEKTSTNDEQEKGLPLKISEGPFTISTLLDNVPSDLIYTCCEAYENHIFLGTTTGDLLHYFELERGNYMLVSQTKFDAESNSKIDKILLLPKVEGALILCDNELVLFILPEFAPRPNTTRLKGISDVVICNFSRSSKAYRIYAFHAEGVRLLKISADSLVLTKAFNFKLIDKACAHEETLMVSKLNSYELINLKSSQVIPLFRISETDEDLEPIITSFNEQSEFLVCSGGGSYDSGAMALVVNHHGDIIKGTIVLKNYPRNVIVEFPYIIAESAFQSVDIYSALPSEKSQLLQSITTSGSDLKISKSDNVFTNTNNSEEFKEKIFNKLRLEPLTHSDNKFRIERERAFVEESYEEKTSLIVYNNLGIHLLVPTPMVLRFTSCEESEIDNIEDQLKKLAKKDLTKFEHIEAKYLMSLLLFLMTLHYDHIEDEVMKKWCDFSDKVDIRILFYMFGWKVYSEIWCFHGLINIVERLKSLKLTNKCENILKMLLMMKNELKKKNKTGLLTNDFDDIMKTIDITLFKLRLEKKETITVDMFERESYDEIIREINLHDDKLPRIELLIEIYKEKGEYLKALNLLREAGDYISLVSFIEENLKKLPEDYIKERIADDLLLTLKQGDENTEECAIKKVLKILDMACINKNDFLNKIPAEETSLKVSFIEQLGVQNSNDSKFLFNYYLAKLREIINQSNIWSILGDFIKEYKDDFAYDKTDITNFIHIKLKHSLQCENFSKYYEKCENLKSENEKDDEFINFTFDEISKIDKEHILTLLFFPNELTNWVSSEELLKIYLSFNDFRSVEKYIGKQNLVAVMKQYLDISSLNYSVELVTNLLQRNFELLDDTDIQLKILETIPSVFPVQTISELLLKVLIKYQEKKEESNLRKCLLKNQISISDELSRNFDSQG

[2] = biological target: T2, Vps8 with 3xFLAG tag (CORVET subunit) (yeast, UniProt P39702 1-1274)
T2 construct: UniProt P39702 printed for its AlphaFold model
T2 sequence: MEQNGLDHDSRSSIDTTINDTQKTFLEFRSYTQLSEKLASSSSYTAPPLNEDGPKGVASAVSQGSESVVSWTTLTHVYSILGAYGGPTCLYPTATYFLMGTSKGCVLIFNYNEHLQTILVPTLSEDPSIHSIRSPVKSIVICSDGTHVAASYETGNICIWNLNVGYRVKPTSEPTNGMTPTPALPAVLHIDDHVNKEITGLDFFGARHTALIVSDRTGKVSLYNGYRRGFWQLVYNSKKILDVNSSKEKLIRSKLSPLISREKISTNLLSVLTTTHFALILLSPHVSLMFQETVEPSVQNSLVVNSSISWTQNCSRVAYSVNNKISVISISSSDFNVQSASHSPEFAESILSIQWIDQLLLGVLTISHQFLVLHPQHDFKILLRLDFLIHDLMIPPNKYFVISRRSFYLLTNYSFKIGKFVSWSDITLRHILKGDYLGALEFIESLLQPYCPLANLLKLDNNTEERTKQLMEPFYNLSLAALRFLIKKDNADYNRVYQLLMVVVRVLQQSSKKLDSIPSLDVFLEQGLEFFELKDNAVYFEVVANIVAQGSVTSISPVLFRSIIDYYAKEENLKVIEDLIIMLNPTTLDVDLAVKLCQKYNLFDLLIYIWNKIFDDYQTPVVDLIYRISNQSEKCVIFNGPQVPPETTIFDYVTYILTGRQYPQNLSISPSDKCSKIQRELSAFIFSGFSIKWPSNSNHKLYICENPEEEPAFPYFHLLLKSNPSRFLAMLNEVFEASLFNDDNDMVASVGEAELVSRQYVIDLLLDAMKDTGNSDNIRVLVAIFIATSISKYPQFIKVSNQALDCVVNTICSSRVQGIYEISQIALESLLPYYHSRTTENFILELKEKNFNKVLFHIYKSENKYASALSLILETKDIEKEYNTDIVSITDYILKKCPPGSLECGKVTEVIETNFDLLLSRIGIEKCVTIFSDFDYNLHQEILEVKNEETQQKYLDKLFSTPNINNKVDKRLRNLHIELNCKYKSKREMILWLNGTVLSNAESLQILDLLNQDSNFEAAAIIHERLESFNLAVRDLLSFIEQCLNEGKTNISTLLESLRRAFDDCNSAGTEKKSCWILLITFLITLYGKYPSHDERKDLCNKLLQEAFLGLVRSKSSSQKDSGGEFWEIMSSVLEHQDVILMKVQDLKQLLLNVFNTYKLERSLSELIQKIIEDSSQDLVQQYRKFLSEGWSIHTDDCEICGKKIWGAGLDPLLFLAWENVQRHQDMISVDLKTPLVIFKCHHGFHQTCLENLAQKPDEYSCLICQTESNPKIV

[3] = biological target: T3, Vps11 (CORVET and HOPS core subunit) (yeast, UniProt P12868 1-1029)
T3 construct: Vps11, yeast, core subunit shared by CORVET and HOPS
T3 sequence: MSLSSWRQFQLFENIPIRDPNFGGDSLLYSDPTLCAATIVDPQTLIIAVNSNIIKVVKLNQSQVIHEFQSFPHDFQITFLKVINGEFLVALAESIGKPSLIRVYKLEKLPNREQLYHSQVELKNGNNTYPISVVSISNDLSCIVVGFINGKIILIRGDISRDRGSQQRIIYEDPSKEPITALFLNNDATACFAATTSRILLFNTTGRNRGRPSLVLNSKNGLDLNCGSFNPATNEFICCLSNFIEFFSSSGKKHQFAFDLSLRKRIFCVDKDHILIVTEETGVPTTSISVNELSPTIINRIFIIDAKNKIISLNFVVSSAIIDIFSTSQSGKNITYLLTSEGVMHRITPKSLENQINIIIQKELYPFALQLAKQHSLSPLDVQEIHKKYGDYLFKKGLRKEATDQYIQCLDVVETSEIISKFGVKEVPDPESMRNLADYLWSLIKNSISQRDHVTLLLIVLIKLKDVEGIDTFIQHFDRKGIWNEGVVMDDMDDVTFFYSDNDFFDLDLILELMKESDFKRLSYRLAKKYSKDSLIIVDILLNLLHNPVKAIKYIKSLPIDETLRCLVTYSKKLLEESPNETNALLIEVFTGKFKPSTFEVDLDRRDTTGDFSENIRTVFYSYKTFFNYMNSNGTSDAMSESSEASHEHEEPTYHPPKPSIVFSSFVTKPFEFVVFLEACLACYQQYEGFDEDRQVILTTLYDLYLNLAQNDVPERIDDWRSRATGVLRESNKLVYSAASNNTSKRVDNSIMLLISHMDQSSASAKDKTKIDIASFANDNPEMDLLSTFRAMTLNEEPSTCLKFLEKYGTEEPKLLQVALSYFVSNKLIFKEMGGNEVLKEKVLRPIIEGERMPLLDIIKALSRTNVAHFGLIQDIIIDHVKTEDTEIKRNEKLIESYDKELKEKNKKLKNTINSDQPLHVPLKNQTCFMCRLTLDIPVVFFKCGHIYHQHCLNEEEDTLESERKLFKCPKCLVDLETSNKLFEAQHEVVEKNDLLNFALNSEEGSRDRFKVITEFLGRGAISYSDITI

binding result [1]: binds
binding result [2]: binds
binding result [3]: binds
B1: Vps18 (CORVET and HOPS core subunit) (natural protein, yeast)
chain: MIKTRIEEVQLQFLTGNTELTHLKVSNDQLIVTTQRTIYRINLQDPAIVNHFDCPLSKELETIMNVHVSPMGSVILIRTNFGRYMLLKDGEFTQLNKIKNLDLSSLHWINETTFLMGIKKTPKLYRVELTGKDITTKLWYENKKLSGGIDGIAYWEGSLLLTIKDNILYWRDVTNMKFPLVLPDESEQFERLKHHAIKKFDSYNGLFAWVTSNGIVFGDLKEKQMEKDPASNNFGKFLSSSKVLLNFELPDYQNDKDHLIKDIVLTAFHILLLRKNTVTMVSQLNNDVVFHETIPRHQLTGSNTDSNEKFLGLVRDSVKETFWCFSNINVFEIIIENEPNSVWNLLVRDNKFDKALSLKGLTVREIESVKLSKAMYLFHTAKDFHSAAQTLGSMKDLSHFGEIALNFLQIKDYNDLNVILIKQLDNVPWKSTQVVLSSWIIWNFMKQLNDIELKINTTKPASTDEDNLLNWNLNLKEKSNELTKFLESHLEKLDNETVYQIMSKQNRQNELLIFASLINDMKFLLSFWIDQGNWYESLKILLTINNHDLVYKYSLILLLNSPEATVSTWMKIKDLDPNKLIPTILKFFTNWQNNSKLITNISEYPENYSLTYLKWCVREVPKMCNPIVYNSILYMMITDPRNDMILENDIIKFMKSNENKYDLNFQLRLSLKFKKTKTSIFLLTRLNLFEDAIDLALKNNLIDDCKVIVNDEILIEDYKLRKRLWLKIAKHLLLSMKDIDIKQLIRTILNDSNEILTIKDLLPFFNEYTTIANLKEELIKFLENHNMKMNEISEDIINSKNLKVEINTEISKFNEIYRILEPGKSCDECGKFLQIKKFIVFPCGHCFHWNCIIRVILNSNDYNLRQKTENFLKAKSKHNLNDLENIIVEKCGLCSDININKIDQPISIDETELAKWNE
notes: Vps18, yeast, core subunit shared by CORVET and HOPS
